The results in this text go back to PMC8204342, “Dual arginine recognition of LRRK2 phosphorylated Rab GTPases” (Biophysical Journal, 2021).

One may read the Kd as the equilibrium constant for the complex coming apart. As a reminder, the stoichiometry N is a count of units in the complex or per binding partner.

B1: RILPL2 extended Rab-binding domain, residues 117-165, tag cleaved (domain or fragment, human, UniProt Q969X0 117-165, looked up)
chain: GPNKMVVDLTDPNRPRFTLQELRDVLQERNKLKSQLLVVQEELQCYKSG
notes: Parallel coiled-coil dimer in the crystal; source: E. coli BL21(DE3), purified (Ni2+-agarose, TEV cleavage, MonoS); not shown: His6, N-terminal, cleaved; MBP, N-terminal, cleaved
B2: Rab8a(Q67L + T72E), phosphomimetic mutant, residues 1-181 (natural protein, human, UniProt P61006 1-181, looked up)
chain: MAKTYDYLFKLLLIGDSGVGKTCVLFRFSEDAFNSTFISTIGIDFKIRTIELDGKRIKLQIWDTAGLERFREITTAYYRGAMGIMLVYDITNEKSFDNIRNWIRNIEEHASADVEKMILGNKCDVNDKRQVSKERGEKLALDYGIKFMETSAKANINVENAFFTLARDIKAKMDKKLEGNS
notes: Rab8a, human, residues 1-181, Q67L + T72E; Tag removed with thrombin; also called Rab8^TE; Rab8TE; source: E. coli, purified (Ni2+-agarose, Superdex 75); not shown: His6, N-terminal, cleaved
B3: pRab8a(Q67L), human Rab8a residues 1-181 phosphorylated at T72, GTP-bound (natural protein, UniProt P61006 1-181, looked up)
chain: MAKTYDYLFKLLLIGDSGVGKTCVLFRFSEDAFNSTFISTIGIDFKIRTIELDGKRIKLQIWDTAGLERFRTITTAYYRGAMGIMLVYDITNEKSFDNIRNWIRNIEEHASADVEKMILGNKCDVNDKRQVSKERGEKLALDYGIKFMETSAKANINVENAFFTLARDIKAKMDKKLEGNS
modifications: phosphothreonine at 72 (pT72)
notes: Tag removed with thrombin (pET28a, NdeI/BamHI); also called pRab8(Q67L); phospho-Rab8a; source: E. coli, purified (Ni2+-agarose, Superdex 75), phosphorylated in vitro by MST3 kinase, separated on MonoS; not shown: His6, N-terminal, cleaved
B4: His6-RILPL2 129-165 synthetic peptide (minimal Rab-binding domain) (peptide, UniProt Q969X0 129-165, looked up)
chain: NRPRFTLQELRDVLQERNKLKSQLLVVQEELQCYKSG
notes: source: synthetic peptide (GenScript); not shown: His6, N-terminal, kept

Data set [1] deals with the molecule itself. In words: crystal structure; pRab8(Q67L):RL2^117, 1:1 molar ratio, 5 mg/mL; 150 mM DL-malic acid, 20% PEG3350; 1.9 A.
Data set [2] deals with B3. In words: ITC; Rab8^TE/pRab8a (400-600 uM) injected into RILPL2 (40-60 uM); 20 mM Tris-HCl, 150 mM NaCl, 5 mM MgCl2, 1 mM DTT, pH 7.5; triplicate. To be noted: both partners purified. (ITC needs no label: the signal is the heat of the interaction.)
The target of data set [3] is B4. The data set is described as above. To be noted: both partners purified.
For data set [4], the target named is B1. The data set is described as above. To be noted: both partners purified.
For data set [5], the target named is T1, Full-length RILPL2 as used in calorimetry (human, UniProt Q969X0 1-211).
T1 construct: also called RL2-FL
T1 sequence (looked up): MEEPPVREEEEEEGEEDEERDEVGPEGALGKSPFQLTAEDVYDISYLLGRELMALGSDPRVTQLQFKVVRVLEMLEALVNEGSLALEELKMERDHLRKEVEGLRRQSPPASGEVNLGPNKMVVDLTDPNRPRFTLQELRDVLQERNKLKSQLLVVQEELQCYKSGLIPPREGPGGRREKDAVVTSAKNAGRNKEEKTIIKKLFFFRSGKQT
The description is as above. To be noted: both partners purified.

Data set [6] deals with the molecule itself. In words: crystal structure; Rab8^TE:RL2^129, 1:2 molar ratio protein/peptide, 12 mg/mL; 100 mM HEPES pH 7, 10% PEG 4000, 10% 2-propanol; 1.7 A.
Data set [7] concerns the target B2. The data set is described as follows: ITC; Rab8^TE/pRab8a (400-600 uM) injected into RILPL2 (40-60 uM); 20 mM Tris-HCl, 150 mM NaCl, 5 mM MgCl2, 1 mM DTT, pH 7.5; triplicate. To be noted: both partners purified.

As for B1, the binding result in data set [1] is listed as “binds”. For the same molecule, in data set [2], the dissociation constant Kd was found to be 540 nM.

On to B2, for which, in data set [3], the dH is -2.7 kcal/mol and the “stoichiometry N” value was found to be 1.03.

As for B3, the dH in data set [4] is -7.4 kcal/mol; in data set [3] it was -5.1 kcal/mol; in data set [5] it was -1.4 kcal/mol. For the same molecule, the results for the “stoichiometry N” value in data set [4], in data set [3] and in data set [5] were 1.1, 0.92 and 1.04, respectively. Further, the Kd in data set [5] worked out at 1400 nM.

For B4, the binding result in data set [6] is reported as “binds”. Further, the dissociation constant (Kd) amounted to 3300 nM in data set [2] and 3400 nM in data set [7].
